Test results: patent US10829561B2, “Antibodies targeting quiescin sulfhydryl oxidase (QSOX1) and uses of same” (Yeda Research and Development Co. Ltd., priority 2015, dated 2020)
“Also recorded” adds a separate entry of the source.

T1: MmQSOX1 TLPG(138-141)VFPV mutant (Mus musculus, UniProt Q8BND5, G141V/L139F/T138V)
T1 construct: made in house
T1 sequence (Q8BND5 36-550 T138V/L139F/G141V limits assumed): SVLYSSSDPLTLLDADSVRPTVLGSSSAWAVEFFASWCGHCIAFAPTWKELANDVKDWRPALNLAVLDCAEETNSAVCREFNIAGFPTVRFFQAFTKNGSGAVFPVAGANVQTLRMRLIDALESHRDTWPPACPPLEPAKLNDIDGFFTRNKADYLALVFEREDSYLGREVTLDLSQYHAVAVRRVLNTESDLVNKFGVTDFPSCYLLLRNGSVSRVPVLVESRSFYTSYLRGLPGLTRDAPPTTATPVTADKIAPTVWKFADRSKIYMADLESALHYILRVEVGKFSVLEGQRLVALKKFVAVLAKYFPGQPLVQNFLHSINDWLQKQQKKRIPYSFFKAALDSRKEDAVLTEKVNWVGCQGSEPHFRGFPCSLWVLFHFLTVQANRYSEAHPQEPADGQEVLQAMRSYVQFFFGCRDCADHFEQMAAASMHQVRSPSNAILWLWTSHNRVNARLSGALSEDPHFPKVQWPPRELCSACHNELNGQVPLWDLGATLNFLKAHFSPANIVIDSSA

T2: MmQSOX1 A116P mutant (Mus musculus, UniProt Q8BND5)
T2 construct: made in house
T2 sequence (Q8BND5 36-550 A119P limits assumed): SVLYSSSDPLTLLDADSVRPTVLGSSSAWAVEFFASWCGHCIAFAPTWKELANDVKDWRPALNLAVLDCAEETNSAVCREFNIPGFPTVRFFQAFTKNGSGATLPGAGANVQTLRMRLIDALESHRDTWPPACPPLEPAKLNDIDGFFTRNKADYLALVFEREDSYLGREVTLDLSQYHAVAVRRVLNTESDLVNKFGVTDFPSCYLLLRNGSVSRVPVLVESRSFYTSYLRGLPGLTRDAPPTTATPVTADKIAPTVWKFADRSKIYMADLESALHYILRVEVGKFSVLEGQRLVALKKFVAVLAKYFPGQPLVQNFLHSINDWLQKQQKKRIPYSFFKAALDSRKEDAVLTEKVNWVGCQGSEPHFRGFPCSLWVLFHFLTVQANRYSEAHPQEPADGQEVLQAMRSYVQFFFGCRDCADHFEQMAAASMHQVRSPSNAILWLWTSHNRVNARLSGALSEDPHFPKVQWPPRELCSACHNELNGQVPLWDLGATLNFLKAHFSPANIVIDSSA

T3: HsQSOX1 (Homo sapiens, UniProt O00391)
T3 construct: made in house
T3 sequence (O00391 33-546 limits assumed): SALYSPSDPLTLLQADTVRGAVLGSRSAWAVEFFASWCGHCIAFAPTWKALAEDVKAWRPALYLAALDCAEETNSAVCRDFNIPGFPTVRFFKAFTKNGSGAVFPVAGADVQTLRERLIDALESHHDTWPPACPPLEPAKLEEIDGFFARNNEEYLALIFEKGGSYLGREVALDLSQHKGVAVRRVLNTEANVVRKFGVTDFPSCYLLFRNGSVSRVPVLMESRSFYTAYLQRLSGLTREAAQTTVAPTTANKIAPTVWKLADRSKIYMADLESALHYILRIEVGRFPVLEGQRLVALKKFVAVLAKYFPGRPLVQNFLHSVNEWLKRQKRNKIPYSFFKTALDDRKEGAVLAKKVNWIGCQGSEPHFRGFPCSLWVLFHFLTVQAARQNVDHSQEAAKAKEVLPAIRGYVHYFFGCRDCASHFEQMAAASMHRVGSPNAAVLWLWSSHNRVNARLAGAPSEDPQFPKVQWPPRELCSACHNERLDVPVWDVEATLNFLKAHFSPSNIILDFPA

T4: MmQSOX1 (Mus musculus, UniProt Q8BND5)
T4 construct: Recombinant MmQSOX1 is truncated at the carboxy-terminus and so migrates faster than endogenous secreted MmQSOX1; made in house
T4 sequence (Q8BND5 36-550 limits assumed): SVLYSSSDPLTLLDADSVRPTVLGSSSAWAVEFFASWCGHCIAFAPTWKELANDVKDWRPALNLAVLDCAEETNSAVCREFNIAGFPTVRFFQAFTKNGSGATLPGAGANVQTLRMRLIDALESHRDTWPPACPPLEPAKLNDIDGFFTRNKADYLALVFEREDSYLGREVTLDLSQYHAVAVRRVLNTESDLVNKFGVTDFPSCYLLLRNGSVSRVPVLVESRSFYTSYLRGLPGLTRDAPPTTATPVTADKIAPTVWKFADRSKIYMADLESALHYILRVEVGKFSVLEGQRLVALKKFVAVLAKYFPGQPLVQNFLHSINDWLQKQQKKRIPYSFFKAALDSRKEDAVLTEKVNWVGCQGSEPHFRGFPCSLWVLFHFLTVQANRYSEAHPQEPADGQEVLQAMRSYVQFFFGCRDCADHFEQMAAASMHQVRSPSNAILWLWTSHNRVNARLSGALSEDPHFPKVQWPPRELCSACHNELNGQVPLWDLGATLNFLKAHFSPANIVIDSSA

T5: RnQSOX1 (Rattus norvegicus, UniProt Q6IUU3)
T5 construct: made in house
T5 sequence (Q6IUU3 33-750): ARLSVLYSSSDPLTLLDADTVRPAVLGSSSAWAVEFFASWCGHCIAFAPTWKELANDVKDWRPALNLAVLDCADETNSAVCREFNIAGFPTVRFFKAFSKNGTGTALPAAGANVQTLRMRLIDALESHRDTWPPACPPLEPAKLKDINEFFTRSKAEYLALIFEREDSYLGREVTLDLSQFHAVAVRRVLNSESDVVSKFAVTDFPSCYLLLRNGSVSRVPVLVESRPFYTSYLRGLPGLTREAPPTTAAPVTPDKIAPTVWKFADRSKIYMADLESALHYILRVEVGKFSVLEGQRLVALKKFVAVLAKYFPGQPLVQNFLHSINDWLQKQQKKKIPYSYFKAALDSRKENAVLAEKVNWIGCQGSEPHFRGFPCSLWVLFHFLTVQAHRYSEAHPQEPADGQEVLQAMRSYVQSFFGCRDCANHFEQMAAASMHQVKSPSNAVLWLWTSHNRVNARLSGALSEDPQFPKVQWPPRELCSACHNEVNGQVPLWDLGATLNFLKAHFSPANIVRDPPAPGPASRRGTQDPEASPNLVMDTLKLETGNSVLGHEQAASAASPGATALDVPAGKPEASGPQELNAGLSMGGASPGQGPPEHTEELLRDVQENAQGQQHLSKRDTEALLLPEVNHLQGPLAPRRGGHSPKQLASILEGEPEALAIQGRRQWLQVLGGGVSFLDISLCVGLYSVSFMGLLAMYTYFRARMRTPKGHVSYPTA

T6: CpQSOX1 (Cavia porcellus, UniProt O08841)
T6 construct: The CpQSOX1 protein spans residues 34-547 of Cavia porcellus QSOX1; His-tag with thrombin site (inferred from the pET-15b vector, NdeI/BamHI cloning); made in house; host or cells: E. coli
T6 sequence (O08841 34-547): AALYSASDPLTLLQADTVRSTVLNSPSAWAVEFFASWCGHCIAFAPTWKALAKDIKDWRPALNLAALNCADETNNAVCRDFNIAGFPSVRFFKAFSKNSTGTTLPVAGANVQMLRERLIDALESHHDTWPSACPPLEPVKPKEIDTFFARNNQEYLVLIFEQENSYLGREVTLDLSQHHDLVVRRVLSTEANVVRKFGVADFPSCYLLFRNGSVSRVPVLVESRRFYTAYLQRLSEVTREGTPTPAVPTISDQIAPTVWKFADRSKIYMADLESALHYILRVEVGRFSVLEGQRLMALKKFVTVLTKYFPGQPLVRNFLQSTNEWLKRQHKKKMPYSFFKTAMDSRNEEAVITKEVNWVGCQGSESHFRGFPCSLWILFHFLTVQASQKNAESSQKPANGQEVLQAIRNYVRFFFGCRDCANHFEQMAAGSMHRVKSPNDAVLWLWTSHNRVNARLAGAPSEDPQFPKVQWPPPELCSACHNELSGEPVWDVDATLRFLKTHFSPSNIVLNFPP


What was measured:
[1] = system: 4T1 murine mammary carcinoma; experiment: Murine 4T1 breast cancer model, tumor volume; format: in vivo, BALB/c female mice; settings: 8 mg/kg doxorubicin once a week, intraperitoneal, vs control mice
Description: 4T1 mCherry cells were suspended in Hanks' Balanced Salt Solution at a concentration of 2.5×10^6 cells/ml and mixed 1:1 with Cultrex® Basement Membrane Extract. 250,000 cells were injected into the mammary fat pad of 45 BALB/c female mice. Animals were divided into 5 groups containing 9 animals each (as depicted in Table 1B, below). Treatments were administered by intraperitoneal injection, beginning 3 days after cell injection. Tumor dimensions (x,y,z) were measured with a caliper twice a week. Tumor volumes were calculated according to: […]. Animals were weighed once a week. Twenty days post cell injection all animals were sacrificed by CO2 asphyxiation. Tumors and lungs were removed into 4% formaldehyde solution and prepared for histology.
The ability of an antibody inhibiting MmQSOX1 to control tumor growth and metastasis was evaluated in vivo in the 4T1 murine mammary carcinoma breast cancer model previously described [Pulaski and Ostrand-Rosenberg (2001) Mouse 4T1 breast tumor model. Curr. Protoc. Immunol. Chapter 20, Unit 20.2.]. Mice were injected with 4T1 cells together with matrigel, which aided in formation of a localized tumor, and then divided into five groups (as described in Table 1B, above). […] Tumor volumes were measured twice a week. Animals were sacrificed after 20 days, and their tumors and lungs were removed for evaluation.

[2] = target: T1, MmQSOX1 TLPG(138-141)VFPV mutant; experiment: Oxygen consumption assay, MmQSOX1 mutant mimicking HsQSOX1; format: biochemical; settings: 250 nM MAb492.1, 200 μM DTT
Description: (§1) Reactions were initiated by DTT injection, and oxygen consumption rates were obtained from initial slopes. […] Measurements were performed 3 times, and resulting rates were averaged. For each mutant, the rate in the presence of inhibitory antibody was divided by the rate in the absence of antibody to get percent activity.
(§2) The first mutant, A116P, was inhibited by about 60% (FIG. 2D), and the second mutant, TLPG(138-141)VFPV, by about 50%.

MmQSOX1 A116P mutant = target: T2, MmQSOX1 A116P mutant; experiment: as above; format: biochemical; settings: 250 nM MAb492.1, 200 μM DTT
Description: as §1, §2

HsQSOX1 = target: T3, HsQSOX1; settings: Grossman I. et al. (2013); cited from earlier work
[3] = system: mouse embryonic fibroblasts (MEFs); experiment: Laminin immunostaining in mouse fibroblast cultures; format: cell-based; settings: MEFs grown for three days in the presence of antibody
Description: (§3) The assays were conducted essentially as previously described [Ilani T. et al. (2013), supra]. Instead of human fibroblasts, mouse fibroblasts were grown for three days in the presence of various antibodies. HEK 293T cells were used as adhering cells.
(§4) QSOX1 and laminin are secreted from quiescent fibroblasts into the ECM, where QSOX1 promotes laminin incorporation, and consequently the adherence of epithelial cells to the fibroblast monolayer. Thus, intact laminin networks in the ECM and cell adherence indicate functional QSOX1 activity in the ECM [Ilani T. et al. (2013), supra]. Inventors first verified that MmQSOX1 is secreted from confluent mouse embryonic fibroblasts (MEFs) (FIG. 4A). Next, extracellular laminin secreted by MEFs grown for three days in the presence of MAb492.1, MAb316.1, or MAb492gen was stained. […] A quantitative assay of epithelial cell adhesion to MEF monolayers was performed next. Fluorescently labeled epithelial cells were added to MEFs grown in the absence or presence of the antibodies, and adherent cells were quantified.

MmQSOX1 = target: T4, MmQSOX1; experiment: Oxygen consumption assay of QSOX1 activity and inhibition (DTT substrate); format: biochemical; settings: 10:1 molar ratio of antibody to enzyme
[4] = system: mouse embryonic fibroblasts (MEFs); experiment: Epithelial cell adhesion to mouse fibroblast monolayer; format: cell-based; settings: 250 nM or 1 μM antibody; HEK 293T adhering cells
Description: as §3, §4

RnQSOX1 = target: T5, RnQSOX1; experiment: Oxygen consumption assay of QSOX1 activity and inhibition (DTT substrate); format: biochemical; settings: even at 1 μM antibody, 10:1 molar ratio of antibody to enzyme
Description: as §1
(§5) Three mammalian QSOX1 enzymes, from common experimental organisms and having 78-79% sequence identity with HsQSOX1, were chosen: Mus musculus QSOX1 (MmQSOX1), Rattus norvegicus QSOX1 (RnQSOX1), and Cavia porcellus (CpQSOX1). Enzyme activity was assessed in an oxygen consumption assay on the model substrate dithiothreitol (DTT).

CpQSOX1 = target: T6, CpQSOX1; experiment: as above; format: biochemical; settings: even at 1 μM antibody, 10:1 molar ratio of antibody to enzyme
Description: as §1, §5

Row | Inhibition of MmQSOX1 TLPG(138-141)VFPV mutant [2] | Inhibition of MmQSOX1 A116P mutant (MmQSOX1 A116P mutant) | Effect on RnQSOX1 activity (RnQSOX1) | Effect on CpQSOX1 activity (CpQSOX1) | Molecule | Tumor volume [1] | Concentration inhibiting HsQSOX1 activity in vitro and in cell culture (HsQSOX1) | Laminin network in ECM [3] | Inhibition of MmQSOX1 at 1 μM antibody (MmQSOX1) | Epithelial cell adherence to MEF monolayer [4]
1 | – | – | – | – | COc1cccc2c1C(=O)c1c(O)c3c(c(O)c1C2=O)C[C@@](O)(C(=O)CO)C[C@@H]3O[C@H]1C[C@H](N)[C@H](O)[C@H](C)O1 [doxorubicin, reference compound] | smaller tumors than control mice | – | – | – | –
2 | about 50% | about 60% | no effect | no effect | MAb492.1: previously published inhibitory monoclonal antibody blocking the Trx CXXC redox-active site of human QSOX1 (antibody, V domains shown) VL: DVVMTQTHKFMSTSVGDRVSITCKASQDVSTAVAWYQQKSGQSPKLLIHSASYRYTGVPDRFTGSGSGTDFTFTISSVQAEDLAVYYCQQHYSIPLTFGAGTKLELK VH: QVQLKQSGPGLVAPSQSLSITCTVSGFSLTGYGVNWVRQSPGKGLEWLGMIWGDGRTDYKSALKSRLSITKDNSKSQVFLKMNSLQTDDTARYFCASDYYGSGSFAYWGQGTLVTVSA | – | near-stoichiometric concentration | did not affect | no effect; also recorded: No inhibition at 1 μM | did not affect
